{"source": "patent US20190083585", "proteins": {"B1": {"name": "Kumamolisin-As (wild type) (protein)", "chain": "AAPTAYTPLDVAQAYQFPEGLDGQGQCIAIIELGGGYDEASLAQYFASLGVPAPQVVSVSVDGASNQPTGDPSGPDGEVELDIEVAGALAPGAKFAVYFAPNTDAGFLDAITTAIHDPTLKPSVVSISWGGPEDSWTSAAIAAMNRAFLDAAALGVTVLAAAGDSGSTDGEQDGLYHVDFPAASPYVLACGGTRLVASGGRIAQETVWNDGPDGGATGGGVSRIFPLPAWQEHANVPPSANPGASSGRGVPDLAGNADPATGYEVVIDGEATVIGGTSAVAPLFAALVARINQKLGKAVGYLNPTLYQLPADVFHDITEGNNDIANRAQIYQAGPGWDPCTGLGSPIGVRLLQALLPSASQPQPGSTENLYFQSGALEHHHHHH"}, "B2": {"name": "Kumamolisin-As N291D, G319S, S354N, D358G, D368H (protein)", "chain": "B1 chain with N102D, G130S, S165N, D169G, D179H"}, "B3": {"name": "Kumamolisin-As N291D, D293A, G319S, S354N, D358G, Q361D, D368H (protein)", "chain": "B1 chain with N102D, D104A, G130S, S165N, D169G, Q172D, D179H"}, "B4": {"name": "Kumamolisin-As D293T, N291D, G319S, D358G, D368H (protein)", "chain": "B1 chain with N102D, D104T, G130S, D169G, D179H"}, "B5": {"name": "Kumamolisin-As S262K, D293N, N291D, G319S, D358G, D368H (protein)", "chain": "B1 chain with S73K, N102D, D104N, G130S, D169G, D179H"}, "B6": {"name": "Kumamolisin-As N291D, G319S, D358G, D368H (protein)", "chain": "B1 chain with N102D, G130S, D169G, D179H"}, "B7": {"name": "KumaMax™ (Kumamolisin-As V119D, S262K, N291D, D293T, G319S, D358G, D368H) (protein)", "chain": "B1 chain with S73K, N102D, D104T, G130S, D169G, D179H"}, "B8": {"name": "Kumamolisin-As T357A (protein)", "chain": "B1 chain with T168A"}, "B9": {"name": "Kumamolisin-As G319S, D368S (protein)", "chain": "B1 chain with G130S, D179S"}, "B10": {"name": "Kumamolisin-As D358G (protein)", "chain": "B1 chain with D169G"}, "B11": {"name": "Kumamolisin-As D293A (protein)", "chain": "B1 chain with D104A"}, "B12": {"name": "Kumamolisin-As D358N (protein)", "chain": "B1 chain with D169N"}, "B13": {"name": "Kumamolisin-As G319S, S354N, D358G, D368H (protein)", "chain": "B1 chain with G130S, S165N, D169G, D179H"}, "B14": {"name": "Kumamolisin-As D358G, D368H (protein)", "chain": "B1 chain with D169G, D179H"}, "B15": {"name": "Kumamolisin-As G319S, D358G, D368H (protein)", "chain": "B1 chain with G130S, D169G, D179H"}}, "note": "Numbering of substitutions follows the chain as printed. Numbers in names are those of the source."}
{"target": "T1, fluorescently quenched α-gliadin hexapeptide analogue QXL520-PQPQLP-K(5-FAM)-NH2", "T1 chain": "PQPQLP", "units": {"Catalytic Efficiency (kcat/KM)": "M⁻¹ s⁻¹", "Fold Change in Activity of PQ Hydrolysis Relative to Wild Type Kumamolysin-As": "fold"}}
{"protein": "B1", "Catalytic Efficiency (kcat/KM)": 4.9, "Fold Change in Activity of PQ Hydrolysis Relative to Wild Type Kumamolysin-As": 1}
{"protein": "B2", "Fold Change in Activity of PQ Hydrolysis Relative to Wild Type Kumamolysin-As": 54.6}
{"protein": "B3", "Fold Change in Activity of PQ Hydrolysis Relative to Wild Type Kumamolysin-As": 58}
{"protein": "B4", "Fold Change in Activity of PQ Hydrolysis Relative to Wild Type Kumamolysin-As": 58}
{"protein": "B5", "Fold Change in Activity of PQ Hydrolysis Relative to Wild Type Kumamolysin-As": 62}
{"protein": "B6", "Fold Change in Activity of PQ Hydrolysis Relative to Wild Type Kumamolysin-As": 93}
{"protein": "B7", "Catalytic Efficiency (kcat/KM)": 568, "Fold Change in Activity of PQ Hydrolysis Relative to Wild Type Kumamolysin-As": 120}
{"protein": "B8", "Fold Change in Activity of PQ Hydrolysis Relative to Wild Type Kumamolysin-As": 2}
{"protein": "B9", "Fold Change in Activity of PQ Hydrolysis Relative to Wild Type Kumamolysin-As": 2}
{"protein": "B10", "Fold Change in Activity of PQ Hydrolysis Relative to Wild Type Kumamolysin-As": 3}
{"protein": "B11", "Fold Change in Activity of PQ Hydrolysis Relative to Wild Type Kumamolysin-As": 3}
{"protein": "B12", "Fold Change in Activity of PQ Hydrolysis Relative to Wild Type Kumamolysin-As": 4}
{"protein": "B13", "Fold Change in Activity of PQ Hydrolysis Relative to Wild Type Kumamolysin-As": 5}
{"protein": "B14", "Fold Change in Activity of PQ Hydrolysis Relative to Wild Type Kumamolysin-As": 6}
{"protein": "B15", "Fold Change in Activity of PQ Hydrolysis Relative to Wild Type Kumamolysin-As": 7}
{"target": "T2, Suc-APE-pNA", "T2 chain": "APE", "units": {"Catalytic Efficiency (kcat/KM)": "M⁻¹ s⁻¹"}}
{"protein": "B1", "Catalytic Efficiency (kcat/KM)": 4}
{"protein": "B7", "Catalytic Efficiency (kcat/KM)": 1.4, "fold decrease in activity compared to its activity on the PQ substrate": "roughly 5-fold decrease in activity on the PE peptide substrate compared to its activity on the PQ substrate"}
{"target": "T3, Suc-APQ-pNA", "T3 chain": "APQ", "units": {"Catalytic Efficiency (kcat/KM)": "M⁻¹ s⁻¹"}}
{"protein": "B7", "Catalytic Efficiency (kcat/KM)": 6.7}
{"target": "T4, Suc-APR-pNA", "T4 chain": "APR", "units": {"Catalytic Efficiency (kcat/KM)": "M⁻¹ s⁻¹"}}
{"protein": "B1", "Catalytic Efficiency (kcat/KM)": 132}
{"target": "T5, immunodominant α9-gliadin peptide QLQPFPQPQLPY", "T5 chain": "QLQPFPQPQLPY", "units": {"half-life of the peptide in the presence of KumaMax": "min"}}
{"protein": "B7", "fraction of immunogenic peptide proteolyzed after 50 minutes (LC-MS, pH 4, 37° C.)": "over 95% of the immunogenic peptide had been proteolyzed after a 50 minute incubation", "half-life of the peptide in the presence of KumaMax": "8.5 ± 0.7"}
